According to patent US9181340B2, “TEM8 antibodies, conjugates thereof, and their use” (The United States of America, as represented by the …, priority 2011, dated 2015):

How the values were obtained:
NCI-H460 tumors = test: NCI-H460 lung cancer xenograft in nude mice; assay type: in vivo, mouse; conditions: L2-mIgG2a 20 mg/kg 3 times per week; DMXAA 25 mg/kg then 5 mg/kg/day for two days; tumors 100 mm^3
human TEM8 (CHO-TEM8) = human TEM8 (CHO-TEM8) (Homo sapiens, UniProt Q9H6X2); test: Flow cytometry staining of CHO-TEM8 cells; assay type: binding
human TEM8 (CHO-TEM8), sequence (Q9H6X2 33-564): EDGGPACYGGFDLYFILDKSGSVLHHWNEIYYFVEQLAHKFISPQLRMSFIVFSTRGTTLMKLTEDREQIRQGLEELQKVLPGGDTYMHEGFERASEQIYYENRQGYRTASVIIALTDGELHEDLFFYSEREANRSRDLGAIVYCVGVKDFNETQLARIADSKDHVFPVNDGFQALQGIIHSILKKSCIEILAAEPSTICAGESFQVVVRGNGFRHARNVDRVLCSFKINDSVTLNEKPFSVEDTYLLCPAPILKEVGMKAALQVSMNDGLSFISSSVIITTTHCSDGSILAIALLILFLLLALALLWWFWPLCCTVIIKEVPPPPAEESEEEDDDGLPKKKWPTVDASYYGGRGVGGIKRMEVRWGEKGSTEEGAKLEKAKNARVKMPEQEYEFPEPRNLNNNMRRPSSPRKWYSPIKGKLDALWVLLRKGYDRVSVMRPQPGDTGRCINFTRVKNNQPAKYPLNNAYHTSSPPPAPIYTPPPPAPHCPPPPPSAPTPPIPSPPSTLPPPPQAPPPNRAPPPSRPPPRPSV
Procedure: (§1) Trypsinized cells were rinsed in cold PBS/0.5% BSA (PBS/BSA) and labeled with anti-TEM8 Fabs (human) or full IgG (human-mouse) primary antibodies in PBS/BSA containing 10% goat serum at 4° C. Cells were rinsed with PBS/BSA and incubated with FITC-conjugated goat anti-human Fab or anti-mouse IgG secondary antibodies (Jackson Immunoresearch, West Grove, Pa.), rinsed again, and analyzed on a FACScalibur flow cytometer (Becton Dickinson, Franklin Lakes, N.J.) using CellQuest™ Software.

CMG2 (CHO-CMG2) = CMG2 (CHO-CMG2) (Homo sapiens, UniProt P58335); test: Flow cytometry staining of CHO-CMG2 cells; assay type: binding; conditions: CMG2 transfectants of CHO/PR230
CMG2 (CHO-CMG2), sequence (P58335 34-489, species assumed): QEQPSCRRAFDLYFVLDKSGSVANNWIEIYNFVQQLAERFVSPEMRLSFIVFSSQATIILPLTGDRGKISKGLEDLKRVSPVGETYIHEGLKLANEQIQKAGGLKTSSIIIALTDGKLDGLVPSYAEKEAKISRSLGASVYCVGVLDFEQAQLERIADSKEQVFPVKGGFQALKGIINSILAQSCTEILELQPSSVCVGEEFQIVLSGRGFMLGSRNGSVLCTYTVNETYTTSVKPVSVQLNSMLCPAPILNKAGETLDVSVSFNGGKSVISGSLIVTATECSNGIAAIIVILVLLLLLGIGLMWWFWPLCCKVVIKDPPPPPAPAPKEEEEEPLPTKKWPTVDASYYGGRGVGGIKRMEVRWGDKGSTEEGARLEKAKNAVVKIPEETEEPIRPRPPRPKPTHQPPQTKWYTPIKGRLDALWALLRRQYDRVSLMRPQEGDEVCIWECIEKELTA
Procedure: as §1

[1] = tested on: CHO-TEM8 cells treated with lethal toxin; assay type: cell-based, Chinese Hamster
[2] = tested on: UACC human melanoma xenografts; test: UACC melanoma xenograft in nude mice; assay type: in vivo, mouse; conditions: dose-escalation study, 15 mg/kg 3× per week
HCT-116 tumors = test: HCT-116 colon xenograft in nude mice; conditions: treatment 3 times per week from 50 mm^3

Cc1ccc2c(=O)c3cccc(CC(=O)O)c3oc2c1C [DMXAA, 5,6-dimethylxanthenone-4-acetic acid, reference compound]
NCI-H460 tumor growth (NCI-H460 tumors): significantly delayed tumor growth

B1: L5-mIgG2a: mouse/human chimeric anti-TEM8 IgG: human L5 variable domains fused with mouse IgG2a constant domains (antibody, V domains shown)
VH: QVQLVESGGGLVQPGGSLRLSCAASGFTFNSYGLSWVRQAPGKGLEWVSNISSNGSYTYYADSVKGRFTISRDNSKNTLYLQMNSLRAEDTAVYYCARAGYGLFDVWGQGTLVTVSSVL
VL: DIELTQPPSVSVAPGQTARISCSGDKLREYYVHWYQQKPGQAPVLVIYGDNKRPSGIPERFSGSNSGNTATLTISGTQAEDEADYYCSSWAGSRSGTVFGGGTKLTVL
staining of CHO-TEM8 cells (human TEM8 (CHO-TEM8)): stained
reactivity with CMG2 (CMG2 (CHO-CMG2)): failed to react with CMG2
EC50 of protection from lethal toxin toxicity [1]: 2.575 µg/mL
UACC tumor growth inhibition at 15 mg/kg [2]: partial growth inhibition
HCT-116 tumor growth (HCT-116 tumors): inhibited HCT-116 tumor growth
